± gives the standard deviation of the averaged measurements.

This data set is described as follows: total protein half-life in vivo (active degradation + dilution); higher = more stable protein.
[1] abbreviates: E. coli NCM3722 delta-clpP delta-lon delta-hslV, growth: N-lim chemostat, doubling time 6 h.
The mark [2] stands for this setting: E. coli NCM3722 delta-clpP, growth: N-lim chemostat, doubling time 6 h.
Setting [3] is: wild type E. coli NCM3722, growth: N-lim chemostat, doubling time 6 h.
[4] abbreviates: E. coli NCM3722 delta-smpB, growth: N-lim chemostat, doubling time 6 h.
The mark [5] stands for this setting: wild type E. coli NCM3722, growth: C-lim chemostat, doubling time 3 h.
Setting [6] is: wild type E. coli NCM3722, growth: C-lim chemostat, doubling time 6 h.
Setting [7] is: wild type E. coli NCM3722, growth: C-lim chemostat, doubling time 12 h.
The mark [8] stands for this setting: wild type E. coli NCM3722, growth: N-lim chemostat, doubling time 12 h.
Where [9] appears, read: wild type E. coli NCM3722, growth: P-lim chemostat, doubling time 6 h.
Where [10] appears, read: wild type E. coli NCM3722, growth: P-lim chemostat, doubling time 12 h.
[11] abbreviates: E. coli NCM3722 delta-hslV, growth: N-lim chemostat, doubling time 6 h.
Setting [12] is: E. coli NCM3722 delta-lon, growth: N-lim chemostat, doubling time 6 h.

Regarding “MMTTILTIHVPSTPGRAWNMLVALQAGNIVARYAKLHLYDAFAIQESRRVDAGNEIAPLLEVEGMKVGLMTCYDLRFPELALAQALQGAEILVLPAAWVRGPLKEHHWSTLLAARALDTTCYMVAAGECGNKNIGQSRIIDPFGVTIAAASEMPALIMAEVTPERVRQVRAQLPVLNNRRFAPPQLL [P0DP64]”, the “total protein half-life in vivo” value under setting [1] was 7.53 h.

“MNEQNLKHVIALLLEDAKRLQQIEPNAGTEARILLAKQALKTCGAQAPGRTEFMNFMANTLTPLPCNGEKVSRVYHDTMVKALRIELDGLRRKIVMNEIVTN”: the “total protein half-life in vivo” value by setting is: under setting [1], 4.2 h; under setting [2], 4.79 h; under setting [3], 4.61 h.

As to “MPLPDFRLIRLLPLAALVLTACSVTTPKGPGKSPDSPQWRQHQQDVRNLNQYQTRGAFAYISDQQKVYARFFWQQTGQDRYRLLLTNPLGSTELELNAQPGNVQLVDNKGQRYTADDAEEMIGKLTGMPIPLNSLRQWILGLPGDATDYKLDDQYRLSEITYSQNGKNWKVVYGGYDTKTQPAMPANMELTDGGQRIKLKMDNWIVK”, the “total protein half-life in vivo” value is, setting by setting: under setting [1], 5.8 ± 0.1 h; under setting [2], 6.43 ± 0.19 h; under setting [4], 6.06 ± 0.35 h; under setting [5], 3.18 ± 0.06 h; under setting [6], 6.24 ± 0.15 h; under setting [7], 11.8 ± 0.91 h. Moreover, the “total protein half-life in vivo” value under setting [3] was determined as 6.37 ± 0.46 h, the “total protein half-life in vivo” value under setting [8] amounted to 13.22 ± 0.027 h, the “total protein half-life in vivo” value under setting [9] was 6.17 ± 0.18 h and the “total protein half-life in vivo” value under setting [10] came to 13.7 ± 0.68 h.

Consider “MIKRNLPLMITIGVFVLGYLYCLTQFPGFASTRVICNILTDNAFLGIIAVGMTFVILSGGIDLSVGSVIAFTGVFLAKVIGDFGLSPLLAFPLVLVMGCAFGAFMGLLIDALKIPAFIITLAGMFFLRGVSYLVSEESIPINHPIYDTLSSLAWKIPGGGRLSAMGLLMLAVVVIGIFLAHRTRFGNQVYAIGGNATSANLMGISTRSTTIRIYMLSTGLATLAGIVFSIYTQAGYALAGVGVELDAIASVVIGGTLLSGGVGTVLGTLFGVAIQGLIQTYINFDGTLSSWWTKIAIGILLFIFIALQRGLTVLWENRQSSPVTRVNIAQQ”, for which the “total protein half-life in vivo” value amounted to 3.66 h under setting [5] and 6.05 h under setting [6].

As to “MTTDQHQEILRTEGLSKFFPGVKALDNVDFSLRRGEIMALLGENGAGKSTLIKALTGVYHADRGTIWLEGQAISPKNTAHAQQLGIGTVYQEVNLLPNMSVADNLFIGREPKRFGLLRRKEMEKRATELMASYGFSLDVREPLNRFSVAMQQIVAICRAIDLSAKVLILDEPTASLDTQEVELLFDLMRQLRDRGVSLIFVTHFLDQVYQVSDRITVLRNGSFVGCRETCELPQIELVKMMLGRELDTHALQRAGRTLLSDKPVAAFKNYGKKGTIAPFDLEVRPGEIVGLAGLLGSGRTETAEVIFGIKPADSGTALIKGKPQNLRSPHQASVLGIGFCPEDRKTDGIIAAASVRENIILALQAQRGWLRPISRKEQQEIAERFIRQLGIRTPSTEQPIEFLSGGNQQKVLLSRWLLTRPQFLILDEPTRGIDVGAHAEIIRLIETLCADGLALLVISSELEELVGYADRVIIMRDRKQVAEIPLAELSVPAIMNAIAA [Q6BEX0]”, the “total protein half-life in vivo” value was found to be 4.28 h under setting [1]; 6.33 ± 1.2 h under setting [2]; 4.45 h under setting [11]; 5.51 h under setting [4]; 3 ± 0.35 h under setting [5]; 6.5 ± 0.63 h under setting [6]. Also, the “total protein half-life in vivo” value under setting [7] was determined as 10.7 ± 0.33 h, the “total protein half-life in vivo” value under setting [8] was 9.4 h, the “total protein half-life in vivo” value under setting [9] came out at 5.93 ± 0.44 h and the “total protein half-life in vivo” value under setting [10] amounted to 11 ± 1.1 h.

On to “MFKPHVTVACVVHAEGKFLVVEETINGKALWNQPAGHLEADETLVEAAARELWEETGISAQPQHFIRMHQWIAPDKTPFLRFLFAIELEQICPTQPHDSDIDCCRWVSAEEILQASNLRSPLVAESIRCYQSGQRYPLEMIGDFNWPFTKGVI [P0AEI6]”, for which the “total protein half-life in vivo” value was found to be 4.74 ± 0.38 h under setting [1]; 4.42 ± 0.56 h under setting [2]; 4.45 h under setting [11]; 4.69 ± 0.34 h under setting [12]; 4.929 ± 0.049 h under setting [4]; 5.3 ± 0.12 h under setting [6]. Besides, the “total protein half-life in vivo” value under setting [7] was 11.6 ± 1.9 h; the “total protein half-life in vivo” value under setting [3] worked out at 4.54 ± 0.27 h; the “total protein half-life in vivo” value under setting [8] came out at 6.249 ± 0.042 h; the “total protein half-life in vivo” value under setting [9] stood at 5.49 ± 0.18 h; the “total protein half-life in vivo” value under setting [10] stood at 11.12 ± 0.055 h.

With “MSNNALQTIINARLPGEEGLWQIHLQDGKISAIDAQSGVMPITENSLDAEQGLVIPPFVEPHIHLDTTQTAGQPNWNQSGTLFEGIERWAERKALLTHDDVKQRAWQTLKWQIANGIQHVRTHVDVSDATLTALKAMLEVKQEVAPWIDLQIVAFPQEGILSYPNGEALLEEALRLGADVVGAIPHFEFTREYGVESLHKTFALAQKYDRLIDVHCDEIDDEQSRFVETVAALAHHEGMGARVTASHTTAMHSYNGAYTSRLFRLLKMSGINFVANPLVNIHLQGRFDTYPKRRGITRVKEMLESGINVCFGHDDVFDPWYPLGTANMLQVLHMGLHVCQLMGYGQINDGLNLITHHSARTLNLQDYGIAAGNSANLIILPAENGFDALRRQVPVRYSVRGGKVIASTQPAQTTVYLEQPEAIDYKR”, the “total protein half-life in vivo” value reads like this: under setting [1], 6.27 ± 0.14 h; under setting [2], 5.838 ± 0.02 h; under setting [11], 5.57 ± 0.45 h; under setting [12], 6.13 ± 0.073 h; under setting [4], 5.64 ± 0.32 h; under setting [5], 2.9 ± 0.17 h. Also, the “total protein half-life in vivo” value worked out at 5.8 ± 0.1 h under setting [6]; 14.3 ± 0.34 h under setting [7]; 5.43 ± 0.29 h under setting [3]; 12.3 ± 1.4 h under setting [8]; 12.7 ± 0.35 h under setting [10].

On to “MGTTTMGVKLDDATRERIKSAATRIDRTPHWLIKQAIFSYLEQLENSDTLPELPALLSGAANESDEAPTPAEEPHQPFLDFAEQILPQSVSRAAITAAYRRPETEAVSMLLEQARLPQPVAEQAHKLAYQLADKLRNQKNASGRAGMVQGLLQEFSLSSQEGVALMCLAEALLRIPDKATRDALIRDKISNGNWQSHIGRSPSLFVNAATWGLLFTGKLVSTHNEASLSRSLNRIIGKSGEPLIRKGVDMAMRLMGEQFVTGETIAEALANARKLEEKGFRYSYDMLGEAALTAADAQAYMVSYQQAIHAIGKASNGRGIYEGPGISIKLSALHPRYSRAQYDRVMEELYPRLKSLTLLARQYDIGINIDAEESDRLEISLDLLEKLCFEPELAGWNGIGFVIQAYQKRCPLVIDYLIDLATRSRRRLMIRLVKGAYWDSEIKRAQMDGLEGYPVYTRKVYTDVSYLACAKKLLAVPNLIYPQFATHNAHTLAAIYQLAGQNYYPGQYEFQCLHGMGEPLYEQVTGKVADGKLNRPCRIYAPVGTHETLLAYLVRRLLENGANTSFVNRIADTSLPLDELVADPVTAVEKLAQQEGQTGLPHPKIPLPRDLYGHGRDNSAGLDLANEHRLASLSSALLNSALQKWQALPMLEQPVAAGEMSPVINPAEPKDIVGYVREATPREVEQALESAVNNAPIWFATPPAERAAILHRAAVLMESQMQQLIGILVREAGKTFSNAIAEVREAVDFLHYYAGQVRDDFANETHRPLGPVVCISPWNFPLAIFTGQIAAALAAGNSVLAKPAEQTPLIAAQGIAILLEAGVPPGVVQLLPGRGETVGAQLTGDDRVRGVMFTGSTEVATLLQRNIASRLDAQGRPIPLIAETGGMNAMIVDSSALTEQVVVDVLASAFDSAGQRCSALRVLCLQDEIADHTLKMLRGAMAECRMGNPGRLTTDIGPVIDSEAKANIERHIQTMRSKGRPVFQAVRENSEDAREWQSGTFVAPTLIELDDFAELQKEVFGPVLHVVRYNRNQLPELIEQINASGYGLTLGVHTRIDETIAQVTGSAHVGNLYVNRNMVGAVVGVQPFGGEGLSGTGPKAGGPLYLYRLLANRPESALAVTLARQDAKYPVDAQLKAALTQPLNALREWAANRPELQALCTQYGELAQAGTQRLLPGPTGERNTWTLLPRERVLCIADDEQDALTQLAAVLAVGSQVLWPDDALHRQLVKALPSAVSERIQLAKAENITAQPFDAVIFHGDSDQLRALCEAVAARDGTIVSVQGFARGESNILLERLYIERSLSVNTAAAGGNASLMTIG”, for which the “total protein half-life in vivo” value is, setting by setting: under setting [1], 5.93 ± 0.7 h; under setting [2], 5.68 ± 0.72 h; under setting [11], 2.39 ± 0.14 h; under setting [12], 2.81 ± 0.3 h; under setting [4], 2.34 ± 0.047 h; under setting [5], 2.08 ± 0.093 h. Further, the “total protein half-life in vivo” value turned out to be 3.5 ± 0.57 h under setting [6]; 4.276 ± 0.022 h under setting [7]; 2.64 ± 0.23 h under setting [3]; 3.8 ± 0.28 h under setting [8]; 2.46 ± 0.32 h under setting [9]; 4.246 ± 0.04 h under setting [10].
